From publication PMC11417369, “DNA sequence and chromatin differentiate sequence-specific transcription factor binding in the human malaria parasite Plasmodium falciparum”
Changes are numbered by the printed parent chain.

T1: AP2-HC D1 (Plasmodium falciparum, UniProt Q8IKR9 1316-1374)
T1 sequence: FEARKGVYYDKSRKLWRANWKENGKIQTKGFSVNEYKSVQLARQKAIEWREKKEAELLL

B1: CACACA_site2473 (dsDNA)
DNA 1: GTTATTGTAAAAAGATTACACACGTTCTATATACTT
DNA 2: AAGTATATAGAACGTGTGTAATCTTTTTACAATAAC
B2: CACACA_site2909 (dsDNA)
DNA 1: TTCTTTTTCCAATTTGCACACCACAAAATTATATAT
DNA 2: ATATATAATTTTGTGGTGTGCAAATTGGAAAAAGAA
B3: CACACA_site3596 (dsDNA)
DNA 1: AAATTCAAACAAATTACACACATTTTTTTTTAATTT
DNA 2: AAATTAAAAAAAAATGTGTGTAATTTGTTTGAATTT
B4: CACACA_negctrl_site1670 (dsDNA)
DNA 1: TTTATTTAAAAAATAAAAAAAAAAAAAAAAAAAAAA
DNA 2: TTTTTTTTTTTTTTTTTTTTTTATTTTTTAAATAAA
B5: CACACA_site8569 (dsDNA)
DNA 1: CTTTAATATTTTATTTCACACACATAAATGCCCCAA
DNA 2: TTGGGGCATTTATGTGTGTGAAATAAAATATTAAAG
B6: CACACA_site9021 (dsDNA)
DNA 1: ATTTCGTAATTTATATCACACACATATATATATAAT
DNA 2: ATTATATATATATGTGTGTGATATAAATTACGAAAT
B7: CACACA_site315 (dsDNA)
DNA 1: ACCAATAATATACATACACACATAAAGGTTTATATA
DNA 2: TATATAAACCTTTATGTGTGTATGTATATTATTGGT
B8: CACACA_site1704 (dsDNA)
DNA 1: ACCTCATAATATTTAACACACAAAATTATATGTATG
DNA 2: CATACATATAATTTTGTGTGTTAAATATTATGAGGT
B9: CACACA_site7599 (dsDNA)
DNA 1: AGCATTTTAAGTTATACACACATTTTGAATCTATAT
DNA 2: ATATAGATTCAAAATGTGTGTATAACTTAAAATGCT
B10: CACACA_site2466 (dsDNA)
DNA 1: TACCTAATATGTTATACACACATTATGAGTACATAT
DNA 2: ATATGTACTCATAATGTGTGTATAACATATTAGGTA
B11: CACACA_site7206 (dsDNA)
DNA 1: B10 DNA 1 with G27A
DNA 2: B10 DNA 2 with C10T
B12: CACACA_site8859 (dsDNA)
DNA 1: ACGATGTTCATCACTACACACACAAAGAAATATATA
DNA 2: TATATATTTCTTTGTGTGTGTAGTGATGAACATCGT
B13: CACACA_site806 (dsDNA)
DNA 1: ATTTAAATAAGATATACACACAAGTAGAAGACTATG
DNA 2: CATAGTCTTCTACTTGTGTGTATATCTTATTTAAAT
B14: CACACA_site2250 (dsDNA)
DNA 1: GAAAGAATAAAATTTACACACATATATATATACATA
DNA 2: TATGTATATATATATGTGTGTAAATTTTATTCTTTC
B15: CACACA_site5129 (dsDNA)
DNA 1: TATAAATACATACGTACACACAAATATTAAAATATA
DNA 2: TATATTTTAATATTTGTGTGTACGTATGTATTTATA
B16: CACACA_site9374 (dsDNA)
DNA 1: TATAGAATAATCTATAAACACACAAACACAACAAAA
DNA 2: TTTTGTTGTGTTTGTGTGTTTATAGATTATTCTATA
B17: CACACA_site8055 (dsDNA)
DNA 1: ATCTAAATAAAGTTAACACACACATAATATATATAT
DNA 2: ATATATATATTATGTGTGTGTTAACTTTATTTAGAT
B18: CACACA_site1591 (dsDNA)
DNA 1: TTAGCAACTATTACTACACACATTTGTATATAATTT
DNA 2: AAATTATATACAAATGTGTGTAGTAATAGTTGCTAA
B19: CACACA_site1421 (dsDNA)
DNA 1: AAAAGTAACAAAGCTACACACATTTAAATAAACATA
DNA 2: TATGTTTATTTAAATGTGTGTAGCTTTGTTACTTTT
B20: CACACA_site2516 (dsDNA)
DNA 1: AAAAAAAATGATAATATACACACTTATGGGAGAGCG
DNA 2: CGCTCTCCCATAAGTGTGTATATTATCATTTTTTTT
B21: CACACA_site2016 (dsDNA)
DNA 1: CCAACATATATTATCACACACATATATATATATATA
DNA 2: TATATATATATATATGTGTGTGATAATATATGTTGG
B22: CACACA_site7038 (dsDNA)
DNA 1: B21 DNA 1 with C1A, A10G, T27A, T33A
DNA 2: B21 DNA 2 with A4T, A10T, T27C, G36T
B23: CACACA_site1016 (dsDNA)
DNA 1: AAATAATGGTTAGCTACACACAAAGCATTTTTTGAA
DNA 2: TTCAAAAAATGCTTTGTGTGTAGCTAACCATTATTT
B24: CACACA_site382 (dsDNA)
DNA 1: GATATATATATTCACACACACATGGAAATATATATA
DNA 2: TATATATATTTCCATGTGTGTGTGAATATATATATC
B25: CACACA_site3408 (dsDNA)
DNA 1: GATCTATACATGGGGACACACATCACTCTATATTTT
DNA 2: AAAATATAGAGTGATGTGTGTCCCCATGTATAGATC
B26: CACACA_site1882 (dsDNA)
DNA 1: ATATAGATCTACACTGCACACATTTTTAACACTGCT
DNA 2: AGCAGTGTTAAAAATGTGTGCAGTGTAGATCTATAT
B27: CACACA_site9316 (dsDNA)
DNA 1: CTTTTTAATAAATATACACACACAAAAAAAAAAAAA
DNA 2: TTTTTTTTTTTTTGTGTGTGTATATTTATTAAAAAG
B28: CACACA_site8 (dsDNA)
DNA 1: TTTATAATTTATATCACACACATATATATATAGTAA
DNA 2: TTACTATATATATATGTGTGTGATATAAATTATAAA
B29: CACACA_site1955 (dsDNA)
DNA 1: AATGAATGTAAGAAAATACACACTAGTATAGTAACA
DNA 2: TGTTACTATACTAGTGTGTATTTTCTTACATTCATT
B30: CACACA_site8596 (dsDNA)
DNA 1: AATGTGTATATATATACACACACATATATATATTTT
DNA 2: AAAATATATATATGTGTGTGTATATATATACACATT
B31: CACACA_site1501 (dsDNA)
DNA 1: TAATAATAATTATATACACACATGTATATTATATTT
DNA 2: AAATATAATATACATGTGTGTATATAATTATTATTA
B32: CACACA_site6815 (dsDNA)
DNA 1: B31 DNA 1 with T4G, A6G, A9G, T34G
DNA 2: B31 DNA 2 with A3C, T28C, T31C, A33C
B33: CACACA_site4030 (dsDNA)
DNA 1: AAGGAAATATAATATACACACATAAGTGTACTTATA
DNA 2: TATAAGTACACTTATGTGTGTATATTATATTTCCTT
B34: CACACA_site8007 (dsDNA)
DNA 1: TTTATTTTATCATTTGCACACGCACCCCCACATAAA
DNA 2: TTTATGTGGGGGTGCGTGTGCAAATGATAAAATAAA
B35: CACACA_site7113 (dsDNA)
DNA 1: TACGTTCTGATATATACACACCTGGTATTAATTATG
DNA 2: CATAATTAATACCAGGTGTGTATATATCAGAACGTA
B36: CACACA_site3027 (dsDNA)
DNA 1: AAGTTTATTTGTTGCACACATATAAGTAGAGAAAAT
DNA 2: ATTTTCTCTACTTATATGTGTGCAACAAATAAACTT
B37: CACACA_site8492 (dsDNA)
DNA 1: AAAAAAAAAAAAAAAACACACACAAATTTAATATAT
DNA 2: ATATATTAAATTTGTGTGTGTTTTTTTTTTTTTTTT
B38: CACACA_site8531 (dsDNA)
DNA 1: ATTTATAATTTTTGAGCACACACAAGCATATATATA
DNA 2: TATATATATGCTTGTGTGTGCTCAAAAATTATAAAT
B39: CACACA_site1808 (dsDNA)
DNA 1: ATAAATATTAAAAGTACACACAGATACACTAATTAT
DNA 2: ATAATTAGTGTATCTGTGTGTACTTTTAATATTTAT
B40: CACACA_site6369 (dsDNA)
DNA 1: ATAAATAAGATATATACACACATATCTATACATATT
DNA 2: AATATGTATAGATATGTGTGTATATATCTTATTTAT
B41: CACACA_site6743 (dsDNA)
DNA 1: AAGAAGCATAAATGTACACACATATTTATATATCAA
DNA 2: TTGATATATAAATATGTGTGTACATTTATGCTTCTT
B42: CACACA_site762 (dsDNA)
DNA 1: ATTTTTTTATTTTGTGCACACACATAAAAATATATA
DNA 2: TATATATTTTTATGTGTGTGCACAAAATAAAAAAAT
B43: CACACA_site8037 (dsDNA)
DNA 1: TAAAAGAAATAAGGTGCACACATATACATATATATA
DNA 2: TATATATATGTATATGTGTGCACCTTATTTCTTTTA
B44: CACACA_site884 (dsDNA)
DNA 1: ATGTGGAAATAGAGCACACATATATATAATATATAT
DNA 2: ATATATATTATATATATGTGTGCTCTATTTCCACAT

Each binder was assayed against T1, AP2-HC D1 (assay: gcPBM; about 25 ug protein; PBS, 1% milk, 0.2 mg/ml BSA, salmon testes DNA, 0.03% Triton X-100). Conditions: tags: N-terminal GST (pGEX-4T-1), kept; label: surface-attached array probe.
For B1, the binding signal was 9.97 ln median PBM intensity, better of two orientations. With B2 the binding signal was 10 ln median PBM intensity, better of two orientations. In the case of B3, the binding signal is reported as 9.94 ln median PBM intensity, better of two orientations. For B4, the binding signal was 8.32 ln median PBM intensity, better of two orientations. With B5 the binding signal was 9.84 ln median PBM intensity, better of two orientations. In the case of B6, the binding signal is reported as 9.99 ln median PBM intensity, better of two orientations. With B7 the binding signal was 9.89 ln median PBM intensity, better of two orientations. B8 was tested, and the binding signal was 9.87 ln median PBM intensity, better of two orientations. For B9, the binding signal was 9.87 ln median PBM intensity, better of two orientations. For B10, the binding signal was 9.88 ln median PBM intensity, better of two orientations. With B11 the binding signal was 9.98 ln median PBM intensity, better of two orientations. For B12, the binding signal was 10.1 ln median PBM intensity, better of two orientations. In the case of B13, the binding signal is reported as 9.85 ln median PBM intensity, better of two orientations. In the case of B14, the binding signal is reported as 9.82 ln median PBM intensity, better of two orientations. B15 was tested, and the binding signal was 9.91 ln median PBM intensity, better of two orientations. In the case of B16, the binding signal is reported as 10.1 ln median PBM intensity, better of two orientations. For B17, the binding signal was 10.1 ln median PBM intensity, better of two orientations. For B18, the binding signal was 9.95 ln median PBM intensity, better of two orientations. In the case of B19, the binding signal is reported as 9.84 ln median PBM intensity, better of two orientations. With B20 the binding signal was 9.94 ln median PBM intensity, better of two orientations. For B21, the binding signal was 9.91 ln median PBM intensity, better of two orientations. B22 was tested, and the binding signal was 9.96 ln median PBM intensity, better of two orientations. B23 was tested, and the binding signal was 9.81 ln median PBM intensity, better of two orientations. B24 was tested, and the binding signal was 10.1 ln median PBM intensity, better of two orientations. For B25, the binding signal was 10.1 ln median PBM intensity, better of two orientations. With B26 the binding signal was 10 ln median PBM intensity, better of two orientations. In the case of B27, the binding signal is reported as 10.1 ln median PBM intensity, better of two orientations. With B28 the binding signal was 9.83 ln median PBM intensity, better of two orientations. For B29, the binding signal was 9.93 ln median PBM intensity, better of two orientations. B30 was tested, and the binding signal was 10.1 ln median PBM intensity, better of two orientations. B31 was tested, and the binding signal was 9.81 ln median PBM intensity, better of two orientations. For B32, the binding signal was 9.9 ln median PBM intensity, better of two orientations. With B33 the binding signal was 9.82 ln median PBM intensity, better of two orientations. For B34, the binding signal was 10 ln median PBM intensity, better of two orientations. In the case of B35, the binding signal is reported as 10 ln median PBM intensity, better of two orientations. B36 was tested, and the binding signal was 9.88 ln median PBM intensity, better of two orientations. For B37, the binding signal was 10.1 ln median PBM intensity, better of two orientations. With B38 the binding signal was 9.85 ln median PBM intensity, better of two orientations. With B39 the binding signal was 10 ln median PBM intensity, better of two orientations. For B40, the binding signal was 9.9 ln median PBM intensity, better of two orientations. For B41, the binding signal was 10.1 ln median PBM intensity, better of two orientations. B42 was tested, and the binding signal was 9.86 ln median PBM intensity, better of two orientations. In the case of B43, the binding signal is reported as 9.97 ln median PBM intensity, better of two orientations. With B44 the binding signal was 9.92 ln median PBM intensity, better of two orientations.
